Test results from article doi:10.1101/2023.08.11.553006, “Short oligomers rather than rings of human RAD52 promote single-strand annealing” (bioRxiv, 2023).
Values joined by “and” are separate entries in the source; they are usually repeats but may differ in a detail not shown here. Equal values may be shown once.

Key:
[1] = molecular target: the molecule itself; assay: mass photometry; label-free single molecules landing on glass slides; Buffer 1 (Tris-HCl 20 mM, NaCl 50 mM, pH 7.5); nanomolar protein concentrations, increasing series; protomers to rings
RAD52(209) = molecular target: T1, RAD52(209) (Homo sapiens, UniProt P43351 1-209); assay: EMSA (native annealing gel); 50-200 nM protein: annealed product runs at protein-free level; at 1 uM a ring band contains both strands (annealed or not unclear); EMSA: 25 mM Tris-acetate pH 7.5, 2 mM Mg(OAc)2, 1 mM DTT, 10 nM ssDNA, 25 C 10 min or 37 C 5 min; mass photometry: 20 mM Tris-HCl pH 7.5, 50 mM NaCl; conditions: protein: recombinant; tags: His tag (pET-15b, Ni-NTA); chain copies: 11; label: 3'-ALEXA488 (Methods: ATTO488) on 48 nt; 3'-ATTO680 on 60 nt; 3' overhang 12 nt (T12) on strand 2
T1 sequence: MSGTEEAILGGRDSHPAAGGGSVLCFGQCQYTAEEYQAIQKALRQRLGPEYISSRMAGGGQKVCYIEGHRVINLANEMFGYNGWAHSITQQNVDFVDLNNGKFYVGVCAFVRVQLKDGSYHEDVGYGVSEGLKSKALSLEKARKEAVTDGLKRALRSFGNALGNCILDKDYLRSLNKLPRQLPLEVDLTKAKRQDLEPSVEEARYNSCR

B1: truncated RAD52(209) (domain or fragment, human, UniProt P43351 1-209, looked up)
chain: T1 sequence
notes: expected monomer molecular weight printed as 25.3 kDa; No removal of the tag is described; Plasmid was a gift from S.C; West; also called C-terminally truncated RAD52; source: E. coli BL21(DE3) with pRARE, purified (His-trap Ni-NTA, Hiload 16/600 superdex)
B1 was tested, and the “stoichiometry N” value [1] was 11 protomers per ring.

B2: full-length human RAD52 (natural protein, UniProt P43351 1-418, looked up)
chain: MSGTEEAILGGRDSHPAAGGGSVLCFGQCQYTAEEYQAIQKALRQRLGPEYISSRMAGGGQKVCYIEGHRVINLANEMFGYNGWAHSITQQNVDFVDLNNGKFYVGVCAFVRVQLKDGSYHEDVGYGVSEGLKSKALSLEKARKEAVTDGLKRALRSFGNALGNCILDKDYLRSLNKLPRQLPLEVDLTKAKRQDLEPSVEEARYNSCRPNMALGHPQLQQVTSPSRPSHAVIPADQDCSSRSLSSSAVESEATHQRKLRQKQLQQQFRERMEKQQVRVSTPSAEKSEAAPPAPPVTHSTPVTVSEPLLEKDFLAGVTQELIKTLEDNSEKWAVTPDAGDGVVKPSSRADPAQTSDTLALNNQMVTQNRTPHSVCHQKPQAKSGSWDLQTYSADQRTTGNWESHRKSQDMKKRKYDPS
notes: RAD52, human, full length; expected monomer molecular weight printed as 48.4 kDa; No removal of the tag is described; Plasmid was a gift from W. Kagawa; source: E. coli BL21(DE3) with pRARE, purified (His-trap Ni-NTA, Hiload 16/600 superdex)
With B2 the “stoichiometry N” value [1] was 7 protomers per ring to 13 protomers per ring (2×) and 10 protomers per ring and 10.6 protomers per ring.

B3: 48/60 nt annealed product (dsDNA)
DNA 1: GCAATTAAGCTCTAAGCCATCCGCAAAAATGACCTCTTATCAAAAGGA
DNA 2: TCCTTTTGATAAGAGGTCATTTTTGCGGATGGCTTAGAGCTTAATTGCTTTTTTTTTTTT
B3: no binding (RAD52(209)).
